Reference: patent US20260043807A1
Like-named read-outs stand apart in the source and are kept apart here.

Columns and labels:
[1] = biological target: Goat IgG; assay: photo-crosslinking, 365 nm 2 hrs, SDS-PAGE (FIG. 6)
[2] = biological target: Goat IgG; assay: as above; remark: listed apart in the source

With “Protein L C* domain T46BPA (designed binder)” the conjugation efficiency [1] was 50% and the conjugation efficiency [2] was 30 to 50%.
